Measured values from patent publication US20210041439A1.

Experiments:
[1] = tested on: cyclin E (substrate of the in vitro ubiquitylation assay)
[2] = target: biotinylated phosphorylated cyclin E degron peptide; test: ALPHAscreen, 1536-well primary screen, n=518 plates
[3] = target: biotinylated phosphorylated cyclin E degron peptide; test: ALPHAscreen, 384-well LOPAC screen; 25 nM FBW7 and 25 nM cyclin E phosphopeptide
[4] = target: biotinylated phosphorylated cyclin E degron peptide; test: ALPHAscreen, 384-well; His-FBW7 on Ni-chelate acceptor beads, biotin-peptide on streptavidin donor beads

wild-type F-box/WD repeat-containing protein 7 (FBW7), recombinant dimeric Skp1-FBW7 complex
reconstituted in vitro Cyclin E polyubiquitylation assay [1]: wt-FBW7 was highly active

mutant FBW7 R505L (FBW7^ARG), recombinant dimeric Skp1-FBW7 complex
reconstituted in vitro Cyclin E polyubiquitylation assay [1]: FBW7^ARG was inactive

wild-type F-box/WD repeat-containing protein 7 (FBW7), recombinant dimeric Skp1-FBW7 complex (from UniProt P63208 1-163) (enzyme)
signal-to-background (S:B) (Wt-FBW7+pCycE-peptide high control versus Wt-FBW7+unphosphorylated CycE peptide low control) [2]: 69.3 | S:B ratio (wt-FBW7 high control versus mutant FBW7 low control, both with cyclin E phosphopeptide) [3]: 14.6 | fold ALPHA signal, phosphorylated versus unphosphorylated cyclin E degron peptide [4]: 100 fold
